Tests used:
Flag-eRF1 [1] = biological target: T1, Flag-eRF1 (S. cerevisiae, UniProt P12385 1-437); experiment: co-IP + AUC
Flag-eRF1 [2] = biological target: T1, Flag-eRF1; experiment: co-IP + AUC; remark: listed apart in the source

Binder	normalized AU-FDS intensity relative to SUP35-GFP (19S peak) (Flag-eRF1 [1])	normalized AU-FDS intensity relative to SUP35-GFP (28S peak) (Flag-eRF1 [1])	normalized AU-FDS intensity relative to SUP35-GFP (39S peak) (Flag-eRF1 [1])	normalized AU-FDS intensity relative to SUP35-GFP (57S peak) (Flag-eRF1 [1])	normalized AU-FDS intensity relative to SUP35-GFP (77S-200S) (Flag-eRF1 [1])	% abundance in the Flag-eRF1 pull-down normalized to SUP35 (19S-200S) (Flag-eRF1 [2])
HSC82 (GFP fusion) (natural protein) not shown	0.08	0.088	0.11	0.11	0.083	9.5 ± 3.5%
SSA2-GFP (natural protein) not shown	0.28	0.35	0.36	0.27	0.38	33 ± 3.45%
HSP60 (GFP fusion) (natural protein, S. cerevisiae, UniProt P19882 26-572, looked up) ELKFGVEGRASLLKGVETLAEAVAATLGPKGRNVLIEQPFGPPKITKDGVTVAKSIVLKDKFENMGAKLLQEVASKTNEAAGDGTTSATVLGRAIFTESVKNVAAGCNPMDLRRGSQVAVEKVIEFLSANKKEITTSEEIAQVATISANGDSHVGKLLASAMEKVGKEGVITIREGRTLEDELEVTEGMRFDRGFISPYFITDPKSSKVEFEKPLLLLSEKKISSIQDILPALEISNQSRRPLLIIAEDVDGEALAACILNKLRGQVKVCAVKAPGFGDNRKNTIGDIAVLTGGTVFTEELDLKPEQCTIENLGSCDSITVTKEDTVILNGSGPKEAIQERIEQIKGSIDITTTNSYEKEKLQERLAKLSGGVAVIRVGGASEVEVGEKKDRYDDALNATRAAVEEGILPGGGTALVKASRVLDEVVVDNFDQKLGVDIIRKAITRPAKQIIENAGEEGSVIIGKLIDEYGDDFAKGYDASKSEYTDMLATGIIDPFKVVRSGLVDASGVASLLATTEVAIVDAPEPPAAAGAGGMPGGMPGMPGMM	0.069	0.11	0.1	0.11	0.13	11 ± 0.75%
HSP82 (GFP fusion) (natural protein) not shown	0.066	0.13	0.075	0.058	0.027	8.6 ± 2.9%
SSA1-GFP (natural protein) not shown	0.29	0.37	0.28	0.28	0.31	30 ± 0.63%
eRF1-GFP (natural protein, S. cerevisiae, UniProt P12385 1-437, looked up) MDNEVEKNIEIWKVKKLVQSLEKARGNGTSMISLVIPPKGQIPLYQKMLTDEYGTASNIKSRVNRLSVLSAITSTQQKLKLYNTLPKNGLVLYCGDIITEDGKEKKVTFDIEPYKPINTSLYLCDNKFHTEVLSELLQADDKFGFIVMDGQGTLFGSVSGNTRTVLHKFTVDLPKKHGRGGQSALRFARLREEKRHNYVRKVAEVAVQNFITNDKVNVKGLILAGSADFKTDLAKSELFDPRLACKVISIVDVSYGGENGFNQAIELSAEALANVKYVQEKKLLEAYFDEISQDTGKFCYGIDDTLKALDLGAVEKLIVFENLETIRYTFKDAEDNEVIKFAEPEAKDKSFAIDKATGQEMDVVSEEPLIEWLAANYKNFGATLEFITDKSSEGAQFVTGFGGIGAMLRYKVNFEQLVDESEDEYYDEDEGSDYDFI	–	–	–	–	–	13 ± 4.5%
HSP26 (GFP fusion) (natural protein, S. cerevisiae, UniProt P15992 1-214, looked up) MSFNSPFFDFFDNINNEVDAFNRLLGEGGLRGYAPRRQLANTPAKDSTGKEVARPNNYAGALYDPRDETLDDWFDNDLSLFPSGFGFPRSVAVPVDILDHDNNYELKVVVPGVKSKKDIDIEYHQNKNQILVSGEIPSTLNEESKDKVKVKESSSGKFKRVITLPDYPGVDADNIKADYANGVLTLTVPKLKPQKDGKNHVKKIEVSSQESWGN	0.087	0.12	0.056	0.052	0.065	7.6 ± 2.9%

Reference: article PMC8816864 (Proteins, 2021)
